The series is described as follows: protein stability index of a GFP-peptide fusion (GPS, HEK-293T) (PSI 1-6); higher = more stable.
[1] abbreviates: treatment: DMSO, c terminus: a fixed tail appended.
[2] abbreviates: treatment: MLN4924 1 uM, 8 h, c terminus: a fixed tail appended.
[3] abbreviates: treatment: DMSO, c terminus: native.
Setting [4] is: treatment: MLN4924 1 uM, 8 h, c terminus: native.

± gives the standard deviation.
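Further: 24-mer peptide tiles fused after GFP, lentivirally expressed, FACS-sorted into six equal bins by GFP/DsRed ratio, decoded by Illumina sequencing, PSI is the read-weighted mean bin number.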

Consider LPMLSVDMENKENGSVGVKNSMEN [SAMD13], for which the protein stability index was found to be 5.09 ± 0.25 under setting [1] and 5.18 ± 0.27 under setting [2].
Take LPPTPLLLFPEEEATNGREGLLRF [AUP1]: the protein stability index by setting is: under setting [1], 3.7 ± 0.33; under setting [2], 3.73 ± 0.13.
In the case of LPVVNAVGEIVGIITRHNLTYEFL [CLCN6], the protein stability index reads like this: under setting [1], 3.07 ± 0.43; under setting [2], 2.75 ± 0.66.
In the case of LQDIKTAGPQSQVLCGVVMDRSLV [ADD1], the protein stability index runs as follows: under setting [1], 2.98 ± 0.22; under setting [2], 2.91 ± 0.19.
Turning to LQEKQKNEKLISLQEQLQRFLKK [TAF7L], the protein stability index was 4.51 ± 0.29 under setting [3] and 4.6 ± 0.15 under setting [4].
LQFEAEMARLQEEHGDQLLSIRCQ [MTUS2] registered a protein stability index under setting [1] of 3.99 ± 0.12 and a protein stability index under setting [2] of 3.92 ± 0.51.
Take LQGKDAWLPLHYAAWQGHLPIVKL [RIPK4]: the protein stability index runs as follows: under setting [1], 2.21 ± 0.38; under setting [2], 2.48 ± 0.42.
LREMLSKKHAAYAWPFYKPVDAEA [BRD3]: the protein stability index was 2.54 ± 0.26 under setting [1] and 2.99 ± 0.16 under setting [2].
The sequence LRGKECCINRFQQVESRWGYSGTS [BTBD1] registered a protein stability index under setting [1] of 2.47 ± 0.18 and a protein stability index under setting [2] of 2.72 ± 0.16.
For LRKSDMLEKEQVAHIRAERDILVE [STK38L], the protein stability index came out at 3.8 ± 0.35 under setting [1] and 4.17 ± 0.13 under setting [2].
In the same order, the values of LRLCRLWPRNPPSRLLGAAAGQRS [DNAJC4] are 2.75 ± 0.54 and 2.7 ± 0.39.
Consider LRLFGRVLERAACLRRCKRTLPAF [P3H4], for which the protein stability index is, setting by setting: under setting [1], 2.37 ± 0.46; under setting [2], 2.16 ± 0.53.
As to LRLPMLNTEVVQVAAGRTQKAGVT [NEK8], the protein stability index under setting [1] was found to be 3.1 ± 0.33 and the protein stability index under setting [2] came to 3.47 ± 0.23.
As for LRSCYFSDPDCSMRPTLIDLLPTF [FBXO39], the protein stability index is 2.46 ± 0.35 under setting [1] and 2.2 ± 0.26 under setting [2].
LRTHIDAIILALPEDLQGILLKTG [DENND6A] yielded a protein stability index under setting [1] of 2.17 ± 0.31 and a protein stability index under setting [2] of 2.4 ± 0.084.
In the case of LRTRVKTTGIVETHFTFKDLHFKM [GNAI1], the protein stability index under setting [2] was 2.14 ± 0.62.
On to LRYYYDKNIIHKTSGKRYVYRFVC [ETS2], for which the protein stability index turned out to be 2.79 ± 0.48 under setting [1] and 2.53 ± 0.62 under setting [2].
Consider LSEASGGRAENGERSDLEEDNERE [ZC3H15], for which the protein stability index runs as follows: under setting [1], 5.53 ± 0.47; under setting [2], 5.81 ± 0.062.
In the same order, the values of LSELLRYHTSQSGDEMTSLSEYVS [HSP90AB1] are 3.27 ± 0.23 and 3.6 ± 0.21.
As to LSMVSECLFSLINGDDMFVTFAAM [MCOLN1], the protein stability index was found to be 2.35 ± 0.43 under setting [1] and 2.31 ± 0.3 under setting [2].
In the same order, the values of LSNLVGKPSENHPLHNSGLLSLDP [MED27] are 3.87 ± 0.28 and 4.13 ± 0.26.
For LSPISHGNTIALFFRSLLPNYTME [TCF25] the same measures were 3.25 ± 0.47 and 2.33 ± 0.7.
Consider LSSGMAVAGMPTAYDLSSVIASGS [CARM1], for which the protein stability index by setting is: under setting [1], 3.02 ± 0.22; under setting [2], 2.9 ± 0.41.
LSSSSARFLSRSIPSLQSEYVHY [CDC14A]: the protein stability index runs as follows: under setting [3], 3.19 ± 0.27; under setting [4], 3.06 ± 0.26.
As for LSTHNWTYWQCGQYLGVGPGAHGR [RSAD1], the protein stability index runs as follows: under setting [1], 2.31 ± 0.21; under setting [2], 1.99 ± 0.27.
LSVAPQIGMPFNQLGTLAGSKYYN [SMG5]: the protein stability index is, setting by setting: under setting [1], 2.67 ± 0.15; under setting [2], 2.71 ± 0.011.
LTDFYPVRRSSRKSKAELQSEERK [KMT5A]: the protein stability index reads like this: under setting [1], 3.04 ± 0.39; under setting [2], 3.49 ± 0.9.
On to LTKDEAAAHLKLTSIEEGYERSFI [IQUB], for which the protein stability index worked out at 3.58 ± 0.39 under setting [1] and 3.43 ± 0.16 under setting [2].
LTLDLPTAPLYKDEKEQLIIPQVP [USP39]: the protein stability index worked out at 3.91 ± 0.33 under setting [1] and 3.92 ± 0.25 under setting [2].
As for LVAGIGFYQHLLLYIQSHYQLELQ [SMG5], the protein stability index came out at 2.99 ± 0.5 under setting [1] and 3.11 ± 0.43 under setting [2].
Turning to LVFLITAILVKVQLDALPFFVITM [SLC29A1], the protein stability index stood at 3.06 ± 0.24 under setting [1] and 2.88 ± 0.39 under setting [2].
In the same order, the values of LVMPIEDQLTQIMRTGQNTWESKN [PCMTD1] are 3.13 ± 0.13 and 3.2 ± 0.38.
For LYPFQIHSIALSTFASLIGPFGGF [CDS1] the same measures were 3.36 ± 0.62 and 3.09 ± 0.36.
For LYVVIPTRRSTAEAFQIVLSHLLG [SPNS1], the protein stability index under setting [1] was found to be 2.72 ± 0.4 and the protein stability index under setting [2] came to 2.71 ± 0.33.
As to LYWTKWYNNQSLGHGSHSFIYYEN [PKD2L1], the protein stability index stood at 2.53 ± 0.68 under setting [1] and 2.41 ± 0.47 under setting [2].
As to MADVINVSVNLEAFSQAISAIQAL [MED27], the protein stability index turned out to be 2.38 ± 0.72 under setting [1] and 2.23 ± 0.17 under setting [2].
Regarding MADWARAQSPGAVEEILDRENKRM [BET1L], the protein stability index reads like this: under setting [1], 4.71 ± 0.35; under setting [2], 4.75 ± 0.21.
As for MASPCSAMAYHHDSRRIFVGQDNG [WDFY1], the protein stability index under setting [1] was found to be 2.64 ± 0.18 and the protein stability index under setting [2] came to 2.67 ± 0.11.
For MASQSQGIQQLLQAEKRAAEKVSE [ATP6V1G1] the same measures were 4.93 ± 0.36 and 5.385 ± 0.052.
Take MDETSPLVSPERAQPPDYTFPSGS [PI4K2A]: the protein stability index was found to be 4.91 ± 0.15 under setting [1] and 4.78 ± 0.39 under setting [2].
As to MDRFDCQYLMATFVHVYITSFIRG [CDS1], the protein stability index runs as follows: under setting [1], 3.01 ± 0.56; under setting [2], 3.67 ± 0.73.
As for MDRRSRAQQWRRARHNYNDLCPPI [GNAS], the protein stability index under setting [1] was found to be 2.92 ± 0.19 and the protein stability index under setting [2] worked out at 3.13 ± 0.3.
For MEAADASRSNGSSPEARDARSPSG [TRIM29] the same measures were 5.29 ± 0.18 and 5.5 ± 0.091.
For MEALDLQPGLSFLNLGSGTGYLSS [PCMTD2] the same measures were 3.4 ± 0.36 and 3.45 ± 0.4.
Consider MGERKGVNKYYPPDFNPEKHGSLN [YJU2B], for which the protein stability index was determined as 4.11 ± 0.4 under setting [1] and 4.18 ± 0.12 under setting [2].
For MGSASPGLSSVSPSHLLLPPDTVS [SPDEF] the same measures were 4.28 ± 0.27 and 4.2 ± 0.23.
For the sequence MINLRRLLLSHIHASSYISPEKEE [PRAME], the protein stability index came out at 2.41 ± 0.26 under setting [1] and 2.63 ± 0.57 under setting [2].
With MKKGGIFSAEFLKVFIPSLFLSHV [BNIP3L], the protein stability index worked out at 3 ± 1.1 under setting [1] and 2.51 ± 0.56 under setting [2].
For MLPGRTDNAVKNHWNSTIKRKVDT [MYBL2], the protein stability index came to 3.61 ± 0.17 under setting [1] and 4.09 ± 0.24 under setting [2].
For MLQRAIAYQHSGHLESKDINQEEL [C10orf62], the protein stability index is 3.96 ± 0.19 under setting [1] and 4.14 ± 0.24 under setting [2].
In the same order, the values of MMDSRTSQQLQLIDEQDSYIQSRA [STX5] are 4.77 ± 0.15 and 4.74 ± 0.076.
With MNLELLESFGQNYPEEADGTLDCI [RBBP5], the protein stability index by setting is: under setting [1], 4.77 ± 0.25; under setting [2], 4.89 ± 0.12.
MNNAVRNLQELLELDSSSSLCVLV [CEP70]: the protein stability index is, setting by setting: under setting [1], 2.36 ± 0.29; under setting [2], 2.32 ± 0.19.
With MPAAGLAVQLRHAWNPEDRSLNVF [SPSB4], the protein stability index runs as follows: under setting [1], 2.75 ± 0.14; under setting [2], 2.95 ± 0.26.
For MPATPSLKVVHELPACTLCAGPLE [TRIM15] the same measures were 3.95 ± 0.28 and 4.03 ± 0.2.
For MSCRDRTQEFLSACKSLQTRQNGI [STX5] the same measures were 3.1 ± 0.21 and 3.1 ± 0.36.
Turning to MSEADGLRQRRPLRPQVVTDDDGQ [APMAP], the protein stability index runs as follows: under setting [1], 5.36 ± 0.28; under setting [2], 5.37 ± 0.33.
Regarding MSKLLKRQNDILQVVSQGWKYFKG [CD207], the protein stability index runs as follows: under setting [1], 2.28 ± 0.36; under setting [2], 2.28 ± 0.082.
With MSLEPQNGTYAGPAPAFQPFFFTG [ANKRD40], the protein stability index was 2.29 ± 0.35 under setting [1] and 2.15 ± 0.31 under setting [2].
Consider MSTKESDFLCLLGVSYTFDNEDSE [MIA2], for which the protein stability index under setting [1] was determined as 2.92 ± 0.14 and the protein stability index under setting [2] came out at 2.91 ± 0.29.
Consider MTSLTQRSSGLVQRRTEASRNAAD [GOLPH3], for which the protein stability index by setting is: under setting [1], 4.89 ± 0.27; under setting [2], 5.03 ± 0.19.
Regarding MTVKPAKAASLARNLAKRRRTYLG [RSPH3], the protein stability index is, setting by setting: under setting [1], 3.16 ± 0.3; under setting [2], 3.6 ± 0.3.
In the case of MVGGGQPCGPNMSEVSCKKRDDYL [DCTD], the protein stability index by setting is: under setting [1], 4.11 ± 0.33; under setting [2], 4.21 ± 0.19.
Regarding MWKFVSPLCMAVLTTASIIQLGVT [SLC6A17], the protein stability index is, setting by setting: under setting [1], 3.21 ± 0.58; under setting [2], 2.87 ± 0.49.
As for MYKLSSEQFHEAASKMESTIKPRR [CHCHD6], the protein stability index by setting is: under setting [1], 3.72 ± 0.53; under setting [2], 4.07 ± 0.64.
For the sequence MYRWKLSSHEPCSATCTTGVMSAY [ADAMTSL2], the protein stability index is, setting by setting: under setting [1], 2.24 ± 0.74; under setting [2], 2.2 ± 0.73.
For NALSKSSAPPITPECRQVLKTSRK [CHGB] the same measures were 4.68 ± 0.22 and 4.77 ± 0.15.
For NCRLQSPYFSPSASFHHKLHHKRL [CBY2], the protein stability index is, setting by setting: under setting [1], 2.32 ± 0.24; under setting [2], 2.33 ± 0.16.
NEDPLVLLAWRCTKLSLLAIHGYT [FBXO33] came in with a protein stability index under setting [1] of 3.05 ± 0.33 and a protein stability index under setting [2] of 2.91 ± 0.65.
NEKEKALQAQVQYQQQHEQQKKDL [SASS6]: the protein stability index under setting [1] came to 5.66 ± 0.2 and the protein stability index under setting [2] amounted to 5.48 ± 0.5.
Regarding NESKGTRESWDSAKKLPPVQESQS [ELOA2], the protein stability index under setting [1] was 5.41 ± 0.096 and the protein stability index under setting [2] came out at 5.1 ± 0.4.
As to NETQPIDLSGLPLQSSKNSYSFQN [RNF180], the protein stability index is, setting by setting: under setting [1], 3.95 ± 0.22; under setting [2], 3.89 ± 0.18.
